In patent publication US20230348564A1, “ANTI-CANCER PROTEINS” (UNICHEM LABORATORIES LTD, priority 2020, published 2023):

Assays:
[1] = system: mechanistic biomarkers; experiment: modulation of mechanistic biomarkers (summary); type: cell-based
Text: The effect of modulation of mechanistic biomarkers by recombinant lectin having the amino acid sequence of SEQ ID NO.2 is summarized as below: • increased levels of HGF, which binds to its receptor C-Met, and then acts on MAPK, • activated ATF-2 which is a tumor suppressor and acts via inducing apoptosis, • increased expression of c-kit, which is receptor for SCF, this acts downstream on MAPK, • increased the expression of JNK and inhibits p53, which activates AFT-2 resulting in apoptosis, • stimulated VEGF, VEGF-A and VEGFR2 expression, which activates Ras-Raf pathway, • inhibited expression of EGF, which binds to EGFR and exerts anticancer effect via Ras-Raf pathway or PKC, • stimulated Her-2, which activates Ras-Raf-MEK1-MAPK-ERK activation, • increased ERK and MEK-1 levels, which activated p90RSK and MMPs expression. ERK also acts via stat-3 and NF-KB, • stimulated GMCSF and IL-6 expression, which act via JAK-STAT pathway and activates NF-KB, • activated IL-4R expression, which connects to JAK-STAT pathway. IL-4R also acts via PI3K-Akt arm, • increased IL-8 levels, which acts via PI-3K-Akt-FOX3 arm. Akt also acts via Stat-3-NF-KB arm, where SEQ ID NO. 2 exerted an increase in Stat-3, • increased expression of Leptin, which binds to its receptor Leptin-R and acts on ERK pathway, • increased levels of cytokines (GMCSF, IL-6 and IL-8) may also interact with the immune system in tumor microenvironment to mount anticancer immunoprotective effect, • activated of TNF-α which connects to JNK pathway, • increased levels of endoglin-1 expression, which is a receptor for TGF-β. […] Binding to Tie-2 regulates PI3k pathway, • activation of Kallikrien-3 & Kallikrien-5 that acts as act a tumor suppressor, via induction of apoptosis, • activation of TRAIL & TRAILR2 causes apoptosis primarily in tumor cells, by binding to certain death receptors, • activation of Osteopontin (PON) which binds to receptors αVβ3 and CD44 and acts via Akt pathway, • inhibited Galectin-1 which either acts via Ras-Raf pathway or PI3k-Akt pathway.

[2] = system: IOMM-Lee cell line; experiment: cell cycle distribution analysis by Propidium Iodide (PI) staining; type: cell-based, Human; details: 1 μg/mL-500 μg/mL
Procedure: The evaluation of pro-apoptotic effect of SEQ ID NO. 2 in brain tumor cell lines U251MG & IOMM Lee was conducted. The cells were treated with SEQ ID NO. 2 at various concentrations around IC50 values. Resultant effect on apoptosis was determined via externalization of Phosphatidyl Serine (PS) on cell membrane by Annexin-V staining, mitochondrial membrane depolarization by JC-1 staining and cell cycle distribution analysis by Propidium Iodide (PI) staining. Increase in apoptotic markers in U251MG & IOMM-Lee cell lines reflected the pro-apoptotic potential of SEQ ID NO. 2 in brain tumor. • Externalization of PS on cell membrane by Annexin-V staining on U251MG cell line: SEQ ID NO.

B1: SEQ ID NO. 2: recombinant lectin; variant of the S. rolfsii lectin amino acid sequence (reported as Rec-2 in WO 2010/095143) (protein)
chain: TYKITVRVYQTNPDAFFHPVEKTVWKYANGGTWTITDDQHVLTMGGSGTSGTLRFHADNGESFTATFGVHNYKRWCDIVTNLAADETGMVINQQYYSQKNREEARERQLSNYQVKNAKGRNFQIVYTEAEGNDLHANLIIG
modifications: In vitro synthesis
With B1 the ATF-2 [1] was “activated”, the “Angiopoietin-1 & Angiopoietin-2” value [1] was “activation” and the CD40L [1] was “inhibited”. The “ERK and MEK-1 levels” value [1] was “increased”, the Fol-1 expression [1] was “increased” and the “GMCSF and IL-6 expression” value [1] was “stimulated”. The Galectin-1 [1] was “inhibited”, the Galectin-3 [1] was “inhibited” and the Her-2 [1] was “stimulated”. The IL-4R expression [1] was “activated”, the IL-8 levels [1] was “increased” and the “Kallikrien-3 & Kallikrien-5” value [1] was “activation”. The “Osteopontin (PON)” value [1] was “activation”, the PDGF-BB [1] was “activation” and the Stat-3 [1] was “increase”. For the same molecule, the TGF-alpha [1] was “activation”, the TNF-α [1] was “activated” and the “TRAIL & TRAILR2” value [1] was “activation”. The “VEGF, VEGF-A and VEGFR2 expression” value [1] was “stimulated”, the “expression of EGF” value [1] was “inhibited” and the “expression of JNK” value [1] was “increased”. For the same molecule, the “expression of Leptin” value [1] was “increased”, the expression of c-kit [1] was “increased” and the “levels of HGF” value [1] was “increased”. For the same molecule, the “levels of endoglin-1 expression” value [1] was “increased”, the p53 [1] was “inhibits” and the “increase in apoptotic population; Sub (G0/G1) as compared to Control (Untreated)” value [2] was 1.1-35.3 fold.
